Experimental data taken from patent US20130129739A1 (Bayer, published 2013).

T1: extracellular domain of human PRLR (monomeric, soluble) (human, UniProt P16471 25-234)
T1 construct: also called ECD-PRLR; ECD of PRLR
T1 sequence: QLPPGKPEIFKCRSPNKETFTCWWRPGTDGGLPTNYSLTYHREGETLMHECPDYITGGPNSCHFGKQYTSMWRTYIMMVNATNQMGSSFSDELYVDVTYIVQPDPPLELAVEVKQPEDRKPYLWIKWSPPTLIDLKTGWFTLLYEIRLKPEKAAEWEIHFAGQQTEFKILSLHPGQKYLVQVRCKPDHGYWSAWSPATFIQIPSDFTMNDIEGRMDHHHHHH


Target: T1, extracellular domain of human PRLR …
Assay: ELISA: plate coated with human PRLR extracellular domain, Fab-containing E. coli supernatant, anti-flag-HRP, Amplex Red
Method: 96 well microtiter plates were coated with 1 μg per milliliter of human PRLR. Plates were incubated over night at 4° C. After blocking with PBS buffer containing 3% bovine serum albumin, normalized E. coli-derived supernatants containing the Fab variants were added. Detection of formed complexes occurred via the addition of an anti-flag antibody (Sigma, A8592) labeled with horseradish peroxidase.

binding result	Binder
binds	005-C04-41-2 (Fab, V domains shown, Maturated 005-C04 variant; Fab in E. coli supernatant, flag-detected) VH: EVQLLESGGGLVQPGGSLRLSCAASGFTFSSYWNHWVRQAPGKGLEWVSDISRASSYTNYADSVKGRFTISRDNSKNTLYLQMNSLRAEDTAVYYCARGLDARRMDYWGQGTLVTVTS VL: QSVLTQPPSASGTPGQRVTISCTGSSSNIGYGYVVHWYQQLPGTAPKLLIYRNNQRPSGVPDRFSGSKSGTSASLAISGLRSEDEADYYCAAWDDSLNGWLFGGGTKLTVLG
binds	005-C04-10-3 (Fab, V domains shown, Maturated 005-C04 variant; Fab in E. coli supernatant, flag-detected) VH: EVQLLESGGGLVQPGGSLRLSCAASGFTFSSYWWHWVRQAPGKGLEWVSDIARLSPYTNYADSVKGRFTISRDNSKNTLYLQMNSLRAEDTAVYYCARGLDARRMDYWGQGTLVTVTS VL: QSVLTQPPSASGTPGQRVTISCTGSSSNIGYGYVVHWYQQLPGTAPKLLIYRNNVRQSGVPDRFSGSKSGTSASLAISGLRSEDEADYYCAAWDDSLNGWLFGGGTKLTVLG
binds	005-C04-21-2 (Fab, V domains shown, Maturated 005-C04 variant; Fab in E. coli supernatant, flag-detected) VH: EVQLLESGGGLVQPGGSLRLSCAASGFTFSSYWNHWVRQAPGKGLEWVSDMARASPYTNYADSVKGRFTISRDNSKNTLYLQMNSLRAEDTAVYYCARGLDARRMDYWGQGTLVTVTS VL: QSVLTQPPSASGTPGQRVTISCTGSSSNIGYGYVVHWYQQLPGTAPKLLIYRNNVRPSGVPDRFSGSKSGTSASLAISGLRSEDEADYYCAAWDDSLNGWLFGGGTKLTVLG
binds	005-C04-29-17-2 (Fab, V domains shown, Maturated 005-C04 variant; Fab in E. coli supernatant, flag-detected) VH: EVQLLESGGGLVQPGGSLRLSCAASGFTFSSYWMHWVRQAPGKGLEWVSDISSASSYTNYADSVKGRFTISRDNSKNTLYLQMNSLRAEDTAVYYCARGLDARRMDYWGQGTLVTVTS VL: QSVLTQPPSASGTPGQRVTISCTGSSSNIGAGYVVHWYQQLPGTAPKLLIYRNNQRPSGVPDRFSGSKSGTSASLAISGLRSEDEADYYCAAWDDSLGGWLFGGGTKLTVLG
binds	005-C04-29-17-0 (Fab, V domains shown, Maturated 005-C04 variant; Fab in E. coli supernatant, flag-detected) VH: EVQLLESGGGLVQPGGSLRLSCAASGFTFSSYWMHWVRQAPGKGLEWVSDISSASSYTNYADSVKGRFTISRDNSKNTLYLQMNSLRAEDTAVYYCARGLDARRMDYWGQGTLVTVTS VL: QSVLTQPPSASGTPGQRVTISCTGSSSNIGAGYVVHWYQQLPGTAPKLLIYRNNQRPSGVPDRFSGSKSGTSASLAISGLRSEDEADYYCAAWDDSLSGWLFGGGTKLTVLG
binds	005-C04-29-17-3 (Fab, V domains shown, Maturated 005-C04 variant; Fab in E. coli supernatant, flag-detected) VH: EVQLLESGGGLVQPGGSLRLSCAASGFTFSSYWMHWVRQAPGKGLEWVSDISSASSYTNYADSVKGRFTISRDNSKNTLYLQMNSLRAEDTAVYYCARGLDARRMDYWGQGTLVTVTS VL: QSVLTQPPSASGTPGQRVTISCTGSSSNIGAGYVVHWYQQLPGTAPKLLIYRNNQRPSGVPDRFSGSKSGTSASLAISGLRSEDEADYYCAAWDDSLFGWLFGGGTKLTVLG
binds	005-C04-19-2 (Fab, V domains shown, Maturated 005-C04 variant; Fab in E. coli supernatant, flag-detected) VH: EVQLLESGGGLVQPGGSLRLSCAASGFTFSSYWNHWVRQAPGKGLEWVSDMARLSPYTNYADSVKGRFTISRDNSKNTLYLQMNSLRAEDTAVYYCARGLDARRMDYWGQGTLVTVTS VL: QSVLTQPPSASGTPGQRVTISCTGSSSNIGYGYVVHWYQQLPGTAPKLLIYRNNQRQSGVPDRFSGSKSGTSASLAISGLRSEDEADYYCAAWDDSLNGWLFGGGTKLTVLG
binds	005-C04-18-10-2 (Fab, V domains shown, Maturated 005-C04 variant; Fab in E. coli supernatant, flag-detected) VH: EVQLLESGGGLVQPGGSLRLSCAASGFTFSSYWMHWVRQAPGKGLEWVSDISSASSYTNYADSVKGRFTISRDNSKNTLYLQMNSLRAEDTAVYYCARGLDARRMDYWGQGTLVTVTS VL: QSVLTQPPSASGTPGQRVTISCTGSSSNIGAGYVVHWYQQLPGTAPKLLIYRNNVRPSGVPDRFSGSKSGTSASLAISGLRSEDEADYYCAAWDDSLNGWLFGGGTKLTVLG
binds	005-C04-4-3-7 (Fab, V domains shown, Maturated 005-C04 variant; Fab in E. coli supernatant, flag-detected) VH: EVQLLESGGGLVQPGGSLRLSCAASGFTFSSYWMHWVRQAPGKGLEWVSDISSASSYTNYADSVKGRFTISRDNSKNTLYLQMNSLRAEDTAVYYCARGLDARRMDYWGQGTLVTVTS VL: QSVLTQPPSASGTPGQRVTISCTGSSSNIGYGYVVHWYQQLPGTAPKLLIYRNNQRPSGVPDRFSGSKSGTSASLAISGLRSEDEADYYCAAWDDSLNGWLFGGGTKLTVLG
binds	005-C04-11-5 (Fab, V domains shown, Maturated 005-C04 variant; Fab in E. coli supernatant, flag-detected) VH: EVQLLESGGGLVQPGGSLRLSCAASGFTFSSYWWHWVRQAPGKGLEWVSDISRLSPYTNYADSVKGRFTISRDNSKNTLYLQMNSLRAEDTAVYYCARGLDARRMDYWGQGTLVTVTS VL: QSVLTQPPSASGTPGQRVTISCTGSSSNIGYGYVVHWYQQLPGTAPKLLIYRNNVRPSGVPDRFSGSKSGTSASLAISGLRSEDEADYYCAAWDDSLNGWLFGGGTKLTVLG
binds	005-C04-20-12-7 (Fab, V domains shown, Maturated 005-C04 variant; Fab in E. coli supernatant, flag-detected) VH: EVQLLESGGGLVQPGGSLRLSCAASGFTFSSYWMHWVRQAPGKGLEWVSDISSASSYTNYADSVKGRFTISRDNSKNTLYLQMNSLRAEDTAVYYCARGLDARRMDYWGQGTLVTVTS VL: QSVLTQPPSASGTPGQRVTISCTGSSSNIGAGYVVHWYQQLPGTAPKLLIYRNNQRQSGVPDRFSGSKSGTSASLAISGLRSEDEADYYCAAWDDSLNGWLFGGGTKLTVLG
binds	005-C04-18-10-4 (Fab, V domains shown, Maturated 005-C04 variant; Fab in E. coli supernatant, flag-detected) VH: EVQLLESGGGLVQPGGSLRLSCAASGFTFSSYWMHWVRQAPGKGLEWVSDISSASSYTNYADSVKGRFTISRDNSKNTLYLQMNSLRAEDTAVYYCARGLDARRMDYWGQGTLVTVTS VL: QSVLTQPPSASGTPGQRVTISCTGSSSNIGAGYVVHWYQQLPGTAPKLLIYRNNWRPSGVPDRFSGSKSGTSASLAISGLRSEDEADYYCAAWDDSLNGWLFGGGTKLTVLG
binds	005-C04-9-2 (Fab, V domains shown, Maturated 005-C04 variant; Fab in E. coli supernatant, flag-detected) VH: EVQLLESGGGLVQPGGSLRLSCAASGFTFSSYWWHWVRQAPGKGLEWVSDIARASSYTNYADSVKGRFTISRDNSKNTLYLQMNSLRAEDTAVYYCARGLDARRMDYWGQGTLVTVTS VL: QSVLTQPPSASGTPGQRVTISCTGSSSNIGYGYVVHWYQQLPGTAPKLLIYRNNWRQSGVPDRFSGSKSGTSASLAISGLRSEDEADYYCAAWDDSLNGWLFGGGTKLTVLG
binds	005-C04-2-7 (Fab, V domains shown, Maturated 005-C04 variant; Fab in E. coli supernatant, flag-detected) VH: EVQLLESGGGLVQPGGSLRLSCAASGFTFSSYWWHWVRQAPGKGLEWVSDISRASPYTNYADSVKGRFTISRDNSKNTLYLQMNSLRAEDTAVYYCARGLDARRMDYWGQGTLVTVTS VL: QSVLTQPPSASGTPGQRVTISCTGVSSNIGAGYVVHWYQQLPGTAPKLLIYRNNQRPSGVPDRFSGSKSGTSASLAISGLRSEDEADYYCAAWDDSLNGWLFGGGTKLTVLG
binds	005-C04-25-6 (Fab, V domains shown, Maturated 005-C04 variant; Fab in E. coli supernatant, flag-detected) VH: EVQLLESGGGLVQPGGSLRLSCAASGFTFSSYWWHWVRQAPGKGLEWVSDMSRLSSYTNYADSVKGRFTISRDNSKNTLYLQMNSLRAEDTAVYYCARGLDARRMDYWGQGTLVTVTS VL: QSVLTQPPSASGTPGQRVTISCTGSSSNIGYGYVVHWYQQLPGTAPKLLIYRNNVRQSGVPDRFSGSKSGTSASLAISGLRSEDEADYYCAAWDDSLNGWLFGGGTKLTVLG
binds	005-C04-21-1 (Fab, V domains shown, Maturated 005-C04 variant; Fab in E. coli supernatant, flag-detected) VH: EVQLLESGGGLVQPGGSLRLSCAASGFTFSSYWNHWVRQAPGKGLEWVSDIARLSPYTNYADSVKGRFTISRDNSKNTLYLQMNSLRAEDTAVYYCARGLDARRMDYWGQGTLVTVTS VL: QSVLTQPPSASGTPGQRVTISCTGSSSNIGYGYVVHWYQQLPGTAPKLLIYRNNVRQSGVPDRFSGSKSGTSASLAISGLRSEDEADYYCAAWDDSLNGWLFGGGTKLTVLG
binds	005-C04-2-2 (Fab, V domains shown, Maturated 005-C04 variant; Fab in E. coli supernatant, flag-detected) VH: EVQLLESGGGLVQPGGSLRLSCAASGFTFSSYWNHWVRQAPGKGLEWVSDMARLSPYTNYADSVKGRFTISRDNSKNTLYLQMNSLRAEDTAVYYCARGLDARRMDYWGQGTLVTVTS VL: QSVLTQPPSASGTPGQRVTISCTGSSSNIGYGYVVHWYQQLPGTAPKLLIYRNNVRQSGVPDRFSGSKSGTSASLAISGLRSEDEADYYCAAWDDSLNGWLFGGGTKLTVLG
binds	005-C04-20-2 (Fab, V domains shown, Maturated 005-C04 variant; Fab in E. coli supernatant, flag-detected) VH: EVQLLESGGGLVQPGGSLRLSCAASGFTFSSYWNHWVRQAPGKGLEWVSDIARLSSYTNYADSVKGRFTISRDNSKNTLYLQMNSLRAEDTAVYYCARGLDARRMDYWGQGTLVTVTS VL: QSVLTQPPSASGTPGQRVTISCTGSSSNIGYGYVVHWYQQLPGTAPKLLIYRNNQRPSGVPDRFSGSKSGTSASLAISGLRSEDEADYYCAAWDDSLNGWLFGGGTKLTVLG
binds	005-C04-29-0 (Fab, V domains shown, Maturated 005-C04 variant; Fab in E. coli supernatant, flag-detected) VH: EVQLLESGGGLVQPGGSLRLSCAASGFTFSSYWNHWVRQAPGKGLEWVSDMSRASSYTNYADSVKGRFTISRDNSKNTLYLQMNSLRAEDTAVYYCARGLDARRMDYWGQGTLVTVTS VL: QSVLTQPPSASGTPGQRVTISCTGSSSNIGYGYVVHWYQQLPGTAPKLLIYRNNQRQSGVPDRFSGSKSGTSASLAISGLRSEDEADYYCAAWDDSLNGWLFGGGTKLTVLG
binds	005-C04-8-6 (Fab, V domains shown, Maturated 005-C04 variant; Fab in E. coli supernatant, flag-detected) VH: EVQLLESGGGLVQPGGSLRLSCAASGFTFSSYWWHWVRQAPGKGLEWVSDMSRASSYTNYADSVKGRFTISRDNSKNTLYLQMNSLRAEDTAVYYCARGLDARRMDYWGQGTLVTVTS VL: QSVLTQPPSASGTPGQRVTISCTGQSSNIGAGYVVHWYQQLPGTAPKLLIYRNNQRPSGVPDRFSGSKSGTSASLAISGLRSEDEADYYCAAWDDSLNGWLFGGGTKLTVLG
